Experimental data published in the supplement of paper PMC7125110.
± gives the standard error. For some assays here: This sample holds only a part of the variants without activity.

B1: glmS ribozyme (parent)
chain: AUAAAAGCGCCAGAACUACAGAAAUGUAGUUGACGAGGAGGAGGUUUAUCGAAUUUUCGGCGGAUGCCUCCAAA

Legend:
Conditions in all cases: with glucosamine-6-phosphate
[1] = variants of: B1; assay: kcat; higher = faster cleavage; RNA array
Summary of the method: (§1)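 Over ~14 h at 37 °C, tiles were imaged as glucosamine-6-phosphate (40 μM to 10 mM) in HEPES/KCl/Mg(OAc)2 buffer flowed across sequenced MiSeq chips. The chips carried barcoded ribozyme variants transcribed in situ by E. coli RNA polymerase and tracked with a hybridised Cy3 probe. After normalisation to baseline and to non-cleaving reference variants, one- or two-exponential decay fits of per-tile medians gave kobs. kcat and KM followed from weighted Michaelis–Menten fits across concentrations.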

[2] = variants of: B1; assay: KM; higher = weaker cofactor use; RNA array
Summary of the method: as §1

[3] = variants of: B1; assay: self-cleavage kobs at 640 uM GlcN6P; higher = faster cleavage; RNA array
Summary of the method: as §1

[4] = variants of: B1; assay: self-cleavage kobs at 2500 uM GlcN6P; higher = faster cleavage; RNA array
Summary of the method: as §1

[5] = variants of: B1; assay: self-cleavage kobs at 10000 uM GlcN6P; higher = faster cleavage; RNA array
Summary of the method: as §1

[6] = variants of: B1; assay: self-cleavage kobs at 40 uM GlcN6P; higher = faster cleavage; RNA array
Summary of the method: as §1

[7] = variants of: B1; assay: self-cleavage kobs at 160 uM GlcN6P; higher = faster cleavage; RNA array
Summary of the method: as §1

Variant | kcat [1] [s⁻¹] | KM [2] [µM] | self-cleavage kobs at 640 uM GlcN6P [3] [s⁻¹] | self-cleavage kobs at 2500 uM GlcN6P [4] [s⁻¹] | self-cleavage kobs at 10000 uM GlcN6P [5] [s⁻¹] | self-cleavage kobs at 40 uM GlcN6P [6] [s⁻¹] | self-cleavage kobs at 160 uM GlcN6P [7] [s⁻¹]
C16G U30C | 0.000111 ± 8.3e-06 | 763 ± 200 | 5.29e-05 ± 9.6e-06 | 7.58e-05 ± 1.2e-05 | 0.000109 ± 1.3e-05 |  | 
G38U A48G | < 1e-05 |  | < 1e-05 |  |  | < 1e-05 | 
A39C A52U | 8.87e-05 ± 2.8e-06 | 2380 ± 210 | 1.71e-05 ± 7.8e-06 | 4.62e-05 ± 6.1e-06 | 7.13e-05 ± 7.2e-06 | < 1e-05 | 
C50U U56G | 1.91e-05 ± 1.3e-06 | 829 ± 360 |  |  |  |  | < 1e-05
A53C C58A | 5.04e-05 ± 1.4e-05 |  |  | 1.94e-05 ± 7.6e-06 | 3.91e-05 ± 8.6e-06 |  | 
A53C U57A U69A | 1.88e-05 ± 5.8e-06 |  |  |  |  |  | 
U54G C68U C70A | 6.79e-05 ± 7.7e-06 |  |  |  | 6.28e-05 ± 1.4e-05 |  | 
A12C C70A | 0.000198 ± 2.9e-05 | 1030 ± 390 | 6.98e-05 ± 1e-05 | 0.000174 ± 1.9e-05 | 0.000162 ± 2e-05 |  | 
U31G U45G | 0.00239 ± 0.00077 |  | 0.000405 ± 0.0001 | 0.00155 ± 0.00034 | 0.00164 ± 0.00042 |  | 
G40C G41U | 8.06e-05 ± 2.1e-05 |  |  | 8.04e-05 ± 1.1e-05 | 6.61e-05 ± 7.9e-06 |  | 
G40A U47A | 0.00464 ± 0.00058 | 1440 ± 270 | 0.00126 ± 0.00024 | 0.0033 ± 0.00065 | 0.00398 ± 0.00077 | 0.000132 ± 2.1e-05 | 
A39C U54C | 0.00666 ± 0.0019 | 2400 ± 1100 | 0.00125 ± 0.0003 | 0.00481 ± 0.00084 | 0.00475 ± 0.00095 | 0.000105 ± 2.5e-05 | 
A14G U49G | 0.00278 ± 0.00095 |  | 0.000937 ± 0.00022 | 0.00109 ± 0.0003 | 0.00302 ± 0.00044 | 7.8e-05 ± 1.6e-05 | 
A39G G40U | 0.0022 ± 0.00044 | 1420 ± 510 | 0.000551 ± 8.8e-05 | 0.0015 ± 0.00022 | 0.00197 ± 0.00022 | 9.64e-05 ± 1.6e-05 | 0.000207 ± 4.9e-05
A42G U47G | 0.00929 ± 0.0033 |  | 0.0029 ± 0.00064 | 0.0046 ± 0.001 | 0.0143 ± 0.0028 | 0.000293 ± 6.2e-05 | 0.00105 ± 0.00032
A12U G13A | 0.0015 ± 0.00056 |  | 8.57e-05 ± 1.1e-05 | 0.000208 ± 3.6e-05 | 0.000715 ± 9.5e-05 |  | 
A6C G29A | < 1e-05 |  |  |  |  | < 1e-05 | 
